From paper PMC3589475, “Large-Scale Functional Purification of Recombinant HIV-1 Capsid” (PLoS ONE, 2013)

Target: cross-linked CA 4Mu hexamer (HIV-1 (NL4-3 strain))
Assay: SPR; Biacore T100; minimally biotinylated WT CA or CA 4Mu hexamer captured on neutravidin on CM5 chips, CAI injected (100 µM and 3-fold dilutions); 50 mM sodium phosphate pH 7.5, 150 mM NaCl, 0.01% P20; steady-state one-site fit

Question: With ITFEDLLDYYGP [CAI peptide] as the binder, how does the Kd read?
Answer: > 100 µM
